Test results published in patent US6864238.

Target: Bovine brain α/β tubulin (bovine) (UniProt P81947)
Assay: cell-based or functional assay

Bovine brain α/β tubulin (bovine), sequence (P81947 whole entry, chain 1 of 2): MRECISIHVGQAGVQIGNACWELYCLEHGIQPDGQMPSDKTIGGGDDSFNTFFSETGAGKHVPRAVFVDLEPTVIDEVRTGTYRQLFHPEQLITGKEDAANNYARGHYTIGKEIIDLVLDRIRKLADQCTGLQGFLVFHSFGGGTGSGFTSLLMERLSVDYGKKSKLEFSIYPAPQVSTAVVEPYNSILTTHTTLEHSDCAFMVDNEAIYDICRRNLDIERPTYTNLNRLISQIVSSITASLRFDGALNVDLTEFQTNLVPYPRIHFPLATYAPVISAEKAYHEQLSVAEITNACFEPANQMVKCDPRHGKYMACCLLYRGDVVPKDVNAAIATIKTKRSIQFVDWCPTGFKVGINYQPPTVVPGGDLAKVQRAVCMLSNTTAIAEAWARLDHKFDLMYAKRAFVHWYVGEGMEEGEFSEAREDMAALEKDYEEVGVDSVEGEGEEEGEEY
Bovine brain α/β tubulin (bovine), sequence (Q6B856 whole entry, chain 2 of 2, further chain): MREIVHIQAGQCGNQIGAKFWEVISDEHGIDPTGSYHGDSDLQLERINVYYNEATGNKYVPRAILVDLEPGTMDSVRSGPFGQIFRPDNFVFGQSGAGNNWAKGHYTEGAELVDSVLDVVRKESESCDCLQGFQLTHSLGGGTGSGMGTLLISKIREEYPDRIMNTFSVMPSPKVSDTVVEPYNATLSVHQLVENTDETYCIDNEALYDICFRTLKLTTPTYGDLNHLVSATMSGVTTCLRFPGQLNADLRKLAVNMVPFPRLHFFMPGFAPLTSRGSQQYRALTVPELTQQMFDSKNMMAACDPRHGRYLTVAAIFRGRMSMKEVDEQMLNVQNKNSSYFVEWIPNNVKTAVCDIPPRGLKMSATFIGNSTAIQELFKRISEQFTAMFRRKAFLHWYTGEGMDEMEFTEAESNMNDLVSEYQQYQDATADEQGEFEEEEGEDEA

distribution of tubulin in supernatant and pellet, in vitro microtubule sedimentation assay (15 µM tubulin): 40 µM
Substance: GST-PN2-2 (from UniProt Q9HC77 191-310)
